These results are taken from patent US20060206948A1 (UNIVERSITY OF PITTSBURGH OF THE COMMONWEALTH SYSTEM OF …, published 2006).

The target in test [1] is long-form human leptin receptor, OB-Rb (human) (UniProt P48357). As to the kind of experiment: binding of labelled leptin to HEK293 cells stably transfected with human OB-Rb.
Test [2] has as its target T1, rat C-reactive protein (rat, UniProt P48199 20-230).
T1 construct: also called rat CRP; rat SLIP-1
T1 sequence (looked up): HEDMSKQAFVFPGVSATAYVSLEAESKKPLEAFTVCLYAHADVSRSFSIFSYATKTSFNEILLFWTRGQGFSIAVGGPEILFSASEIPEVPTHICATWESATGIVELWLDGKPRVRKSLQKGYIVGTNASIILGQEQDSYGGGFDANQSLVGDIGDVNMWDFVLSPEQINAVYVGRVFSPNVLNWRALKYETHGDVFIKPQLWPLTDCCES
As to the kind of experiment: immunoprecipitation with anti-mouse leptin, western blot with anti-CRP. A general note: A western blot detects proteins with antibodies after separation by electrophoresis.

The target in test [3] is T2, mouse leptin (mouse), P41160.
T2 chain: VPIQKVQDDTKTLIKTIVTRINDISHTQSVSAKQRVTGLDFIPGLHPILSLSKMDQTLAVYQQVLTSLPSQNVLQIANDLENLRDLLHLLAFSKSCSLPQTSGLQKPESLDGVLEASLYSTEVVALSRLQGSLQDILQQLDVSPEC
Description: human CRP against mouse leptin (~2 ng/ml) binding to OB-Rb HEK293 cells (FIG. 3G). The following applies: remark: other sources report otherwise.

For test [4], the target named is T3, human leptin (SEQ ID NO:4) (human, UniProt P41159 22-167).
T3 construct: Recombinant human leptin; also called recombinant human leptin
Description: derived from the IC50 of CRP against 125I-human leptin binding to OB-Rb HEK293 cells. The protocol: (§1) 4. […] After 10 minute incubation at room temperature, the reaction was stopped with 100 μl 0.1% trifluoroacetic acid (TFA). The reaction mixture was immediately purified by reverse-phase HPLC. The separation employed a 5 minute isocratic step at 20% eluant B in A, followed by two consecutive 30 minute linear gradients from 20 to 50%, then from 50 to 60% eluant B in A (where eluant A is water containing 0. 1% TFA and eluant B is acetonitrile containing 0.1% TFA) at a flow rate of 1.5 ml/min. […] The incubation would last for 3 hours at 4° C. before the media was aspirated and the cells were dissolved in 0.1N NaOH for scintillation counting.

Test [5] concerns the target T3, human leptin (SEQ ID NO:4). Description: human CRP pre-incubated with 125I-human leptin (~2 ng/ml); inhibition of leptin binding to OB-Rb HEK293 cells, scintillation counting. Here is the method: as §1

Sequence of long-form human leptin receptor, OB-Rb (human) (P48357 22-1165): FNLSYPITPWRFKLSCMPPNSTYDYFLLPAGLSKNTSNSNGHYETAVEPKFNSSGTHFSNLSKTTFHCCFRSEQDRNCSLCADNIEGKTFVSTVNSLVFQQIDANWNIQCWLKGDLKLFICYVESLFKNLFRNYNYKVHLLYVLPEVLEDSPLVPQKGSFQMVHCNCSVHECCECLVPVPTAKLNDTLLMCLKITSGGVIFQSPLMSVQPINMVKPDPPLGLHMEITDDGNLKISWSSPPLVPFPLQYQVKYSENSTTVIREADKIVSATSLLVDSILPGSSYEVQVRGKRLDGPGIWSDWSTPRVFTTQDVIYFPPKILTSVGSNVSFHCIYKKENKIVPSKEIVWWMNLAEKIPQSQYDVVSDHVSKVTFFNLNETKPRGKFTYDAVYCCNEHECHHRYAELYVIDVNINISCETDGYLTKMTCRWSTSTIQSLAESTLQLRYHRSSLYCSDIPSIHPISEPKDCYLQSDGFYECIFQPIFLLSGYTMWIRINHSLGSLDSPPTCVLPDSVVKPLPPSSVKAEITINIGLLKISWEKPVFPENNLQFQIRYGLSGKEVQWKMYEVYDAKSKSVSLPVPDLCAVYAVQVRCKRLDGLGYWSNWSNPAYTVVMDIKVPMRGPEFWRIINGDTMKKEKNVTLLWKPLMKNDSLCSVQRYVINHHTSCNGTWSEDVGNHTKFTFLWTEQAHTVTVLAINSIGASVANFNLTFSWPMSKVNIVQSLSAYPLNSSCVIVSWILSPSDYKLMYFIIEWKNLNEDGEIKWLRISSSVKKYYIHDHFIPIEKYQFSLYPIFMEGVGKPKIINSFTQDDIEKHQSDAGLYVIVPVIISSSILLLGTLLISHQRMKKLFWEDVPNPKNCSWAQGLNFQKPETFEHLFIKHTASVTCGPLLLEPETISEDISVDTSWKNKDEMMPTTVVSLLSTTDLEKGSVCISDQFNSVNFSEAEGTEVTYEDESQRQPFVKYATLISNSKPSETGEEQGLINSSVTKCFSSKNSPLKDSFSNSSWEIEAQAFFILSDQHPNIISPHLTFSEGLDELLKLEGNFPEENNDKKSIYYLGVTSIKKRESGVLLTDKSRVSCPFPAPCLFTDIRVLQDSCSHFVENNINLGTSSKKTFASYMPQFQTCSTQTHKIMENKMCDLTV

For “human leptin (SEQ ID NO:4) (from UniProt P41159 22-167) (ligand)”, the Kd (in general, the constant that tells how readily two partners part at equilibrium) in test [1] came out at 1 nM.

B1: mouse leptin (ligand, UniProt P41160 22-167, looked up)
chain: VPIQKVQDDTKTLIKTIVTRINDISHTQSVSAKQRVTGLDFIPGLHPILSLSKMDQTLAVYQQVLTSLPSQNVLQIANDLENLRDLLHLLAFSKSCSLPQTSGLQKPESLDGVLEASLYSTEVVALSRLQGSLQDILQQLDVSPEC
notes: Recombinant; also called recombinant mouse leptin; murine leptin
In the case of B1, the binding result in test [2] is on record as “binds”.

B2: human C-reactive protein (other, UniProt P02741 19-224, looked up)
chain: QTDMSRKAFVFPKESDTSYVSLKAPLTKPLKAFTVCLHFYTELSSTRGYSIFSYATKRQDNEILIFWSKDIGYSFTVGGSEILFEVPEVTVAPVHICTSWESASGIVEFWVDGKPRVRKSLKKGYTVGAEASIILGQEQDSFGGNFEGSQSLVGDIGNVNMWDFVLSPDEINTIYLGGPFSPNVLNWRALKYEVQGEVFTKPQLWP
notes: Human SLIP-1 from the leptin column was identified as human CRP; also called human CRP; CRP
In the case of B2, the IC50 (in general, the concentration that inhibits the measured activity by half) in test [3] was greater than 64 µg/mL; in test [5], roughly 0.08 µg/mL. In addition, in test [4], the “molecular ratio CRP:leptin at the IC50” value was 5.8 CRP:leptin (molar, CRP pentamer).
